Measurements as given in US20140249073A1.

What was measured:
[1] = target: T1, fluorogenic peptide substrate decanoyl-LSSPAY(NO2)A-ADK(abz)PD
T1 chain: LSSPAYAADKPD

[2] = target: T2, fluorogenic peptide substrate decanoyl-LTPTAY(NO2)A-ASK(abz)DD
T2 chain: LTPTAYAASKDD

B1: Full length His-tagged S. aureus SPase (protein)
chain: MKKELLEWIISIAVAFVILFIVGKFIVTSYTIKGESMDPTLKDGERVAVNIIGYKTGGLEKGNVVVFHANKNDDYVKRVIGVPGDKVEYKNDTLYVNGKKQDEPYLNYNLKHKQGDYITGTFQVKDLPNANPKSNVIPKGKYLVLGDNREVSKDSRAFGLIDEDQIVGKVSFRFWPFSEFKHNFNPENTKN
[1]
  second order rate constant (Kcat/Km) of substrate cleavage: 10^5 M^-1 s^-1
[2]
  second order rate constant (Kcat/Km) of substrate cleavage: 10^5 M^-1 s^-1
